Experimental data: IntAct's records for PubMed 35512704

B1: Mothers against decapentaplegic homolog 4 (Homo sapiens), Q13485 (parent)
chain: MDNMSITNTPTSNDACLSIVHSLMCHRQGGESETFAKRAIESLVKKLKEKKDELDSLITAITTNGAHPSKCVTIQRTLDGRLQVAGRKGFPHVIYARLWRWPDLHKNELKHVKYCQYAFDLKCDSVCVNPYHYERVVSPGIDLSGLTLQSNAPSSMMVKDEYVHDFEGQPSLSTEGHSIQTIQHPPSNRASTETYSTPALLAPSESNATSTANFPNIPVASTSQPASILGGSHSEGLLQIASGPQPGQQQNGFTGQPATYHHNSTTTWTGSRTAPYTPNLPHHQNGHLQHHPPMPPHPGHYWPVHNELAFQPPISNHPAPEYWCSIAYFEMDVQVGETFKVPSSCPIVTVDGYVDPSGGDRFCLGQLSNVHRTEAIERARLHIGKGVQLECKGEGDVWVRCLSDHAVFVQSYYLDREAGRAPGDAVHKIYPSAYIKVFDLRQCHRQMQQQAATAQAAAAAQAAAVAGNIPGPGSVGGIAPAISLSAAAGIGVDDLRRLCILRMSFVKGWGPDYPRQSIKETPCWIEIHLHRALQLLDEVLHTMPIADPQPLD
partner: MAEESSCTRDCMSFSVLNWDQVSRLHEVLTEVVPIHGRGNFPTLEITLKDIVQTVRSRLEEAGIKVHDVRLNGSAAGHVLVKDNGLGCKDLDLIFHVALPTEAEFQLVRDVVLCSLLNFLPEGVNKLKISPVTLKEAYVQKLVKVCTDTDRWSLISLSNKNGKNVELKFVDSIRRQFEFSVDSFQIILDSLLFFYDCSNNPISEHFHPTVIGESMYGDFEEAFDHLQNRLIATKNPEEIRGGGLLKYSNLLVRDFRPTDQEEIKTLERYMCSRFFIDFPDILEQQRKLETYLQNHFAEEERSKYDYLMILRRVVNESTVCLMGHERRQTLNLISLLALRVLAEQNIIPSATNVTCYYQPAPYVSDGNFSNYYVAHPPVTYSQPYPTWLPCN
B2: Mothers against decapentaplegic homolog 4 (Homo sapiens), Q13485 (parent)
chain: B1 chain
partner: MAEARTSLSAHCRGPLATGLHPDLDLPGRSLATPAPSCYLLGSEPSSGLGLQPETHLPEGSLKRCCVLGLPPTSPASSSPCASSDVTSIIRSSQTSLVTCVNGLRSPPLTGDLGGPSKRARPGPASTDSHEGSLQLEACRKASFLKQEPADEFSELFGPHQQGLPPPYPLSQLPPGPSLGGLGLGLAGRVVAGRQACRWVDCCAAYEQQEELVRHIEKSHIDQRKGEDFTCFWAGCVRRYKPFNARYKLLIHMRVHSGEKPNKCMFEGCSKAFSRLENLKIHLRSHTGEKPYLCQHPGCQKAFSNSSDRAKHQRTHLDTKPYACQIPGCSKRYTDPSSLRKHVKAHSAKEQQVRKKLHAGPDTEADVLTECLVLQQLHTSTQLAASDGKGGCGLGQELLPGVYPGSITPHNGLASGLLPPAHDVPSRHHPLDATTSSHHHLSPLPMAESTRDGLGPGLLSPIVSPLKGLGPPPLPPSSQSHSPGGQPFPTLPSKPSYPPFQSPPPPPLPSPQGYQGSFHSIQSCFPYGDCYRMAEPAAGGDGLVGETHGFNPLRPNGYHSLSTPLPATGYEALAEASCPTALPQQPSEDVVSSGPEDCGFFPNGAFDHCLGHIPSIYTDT
B3: Mothers against decapentaplegic homolog 4 (Homo sapiens), Q13485 (parent)
chain: B1 chain
partner: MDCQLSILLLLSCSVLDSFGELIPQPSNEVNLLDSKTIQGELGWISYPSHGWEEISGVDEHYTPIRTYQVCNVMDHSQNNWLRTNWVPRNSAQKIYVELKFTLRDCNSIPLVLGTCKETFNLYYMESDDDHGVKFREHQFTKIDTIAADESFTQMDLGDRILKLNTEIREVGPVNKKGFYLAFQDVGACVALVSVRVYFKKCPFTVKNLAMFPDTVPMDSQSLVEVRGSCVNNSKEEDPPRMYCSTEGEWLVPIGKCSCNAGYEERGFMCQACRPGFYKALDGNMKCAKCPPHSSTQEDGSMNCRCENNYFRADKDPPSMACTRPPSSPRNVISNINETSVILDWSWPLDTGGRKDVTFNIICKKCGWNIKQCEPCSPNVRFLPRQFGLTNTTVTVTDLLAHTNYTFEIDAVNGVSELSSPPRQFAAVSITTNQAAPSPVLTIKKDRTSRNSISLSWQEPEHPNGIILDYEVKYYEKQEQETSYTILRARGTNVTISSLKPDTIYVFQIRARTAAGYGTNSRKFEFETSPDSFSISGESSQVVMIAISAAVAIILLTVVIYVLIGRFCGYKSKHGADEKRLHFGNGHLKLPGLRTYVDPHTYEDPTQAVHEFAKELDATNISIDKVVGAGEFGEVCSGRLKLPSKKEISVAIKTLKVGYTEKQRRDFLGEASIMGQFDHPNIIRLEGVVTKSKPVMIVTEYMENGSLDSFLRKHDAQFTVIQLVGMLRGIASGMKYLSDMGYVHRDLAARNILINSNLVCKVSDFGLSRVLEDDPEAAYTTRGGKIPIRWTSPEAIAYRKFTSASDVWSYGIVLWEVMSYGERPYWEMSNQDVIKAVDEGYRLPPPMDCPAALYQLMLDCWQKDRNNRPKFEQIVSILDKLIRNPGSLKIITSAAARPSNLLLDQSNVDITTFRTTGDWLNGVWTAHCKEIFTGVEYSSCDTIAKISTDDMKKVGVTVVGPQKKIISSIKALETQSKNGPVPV
B4: Mothers against decapentaplegic homolog 4 (Homo sapiens), Q13485 (parent)
chain: B1 chain
partner: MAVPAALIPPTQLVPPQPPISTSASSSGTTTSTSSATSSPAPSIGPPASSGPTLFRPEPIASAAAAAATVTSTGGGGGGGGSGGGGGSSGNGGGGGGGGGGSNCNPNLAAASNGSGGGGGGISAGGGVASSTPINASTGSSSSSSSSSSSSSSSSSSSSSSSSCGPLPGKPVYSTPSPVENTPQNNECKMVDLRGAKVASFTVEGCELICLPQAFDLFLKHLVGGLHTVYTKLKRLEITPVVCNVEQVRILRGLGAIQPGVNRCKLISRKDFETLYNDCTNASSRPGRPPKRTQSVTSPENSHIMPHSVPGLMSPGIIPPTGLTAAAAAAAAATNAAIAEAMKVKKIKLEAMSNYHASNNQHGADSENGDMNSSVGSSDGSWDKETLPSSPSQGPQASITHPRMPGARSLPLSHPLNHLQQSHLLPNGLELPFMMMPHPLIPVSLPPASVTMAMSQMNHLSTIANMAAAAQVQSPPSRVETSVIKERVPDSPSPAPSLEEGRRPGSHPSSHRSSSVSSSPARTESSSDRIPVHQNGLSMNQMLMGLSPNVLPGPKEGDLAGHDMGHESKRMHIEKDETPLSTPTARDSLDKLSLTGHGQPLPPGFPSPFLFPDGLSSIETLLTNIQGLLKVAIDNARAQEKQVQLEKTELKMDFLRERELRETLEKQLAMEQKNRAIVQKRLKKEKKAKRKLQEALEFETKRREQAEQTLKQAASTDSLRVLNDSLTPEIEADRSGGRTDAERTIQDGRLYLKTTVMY

Variants of: B1
Settings: with tet5c_human TENT5C

effect of a mutation on the interaction | Variant
with no effect | G386D

Variants of: B2
Settings: with glis1_human GLIS1, Q8NBF1

effect of a mutation on the interaction | Variant
with no effect | G386D

Variants of: B2
Settings: with glis1_human GLIS1, Q8NBF1
Remark: another data set of the same source

effect of a mutation on the interaction | Variant
with no effect | D351H

Variants of: B2
Settings: with glis1_human GLIS1, Q8NBF1
Remark: another data set of the same source

effect of a mutation on the interaction | Variant
with no effect | R361H

Variants of: B3
Settings: with epha3_human EPHA3, P29320

effect of a mutation on the interaction | Variant
with no effect | R361C

Variants of: B3
Settings: with epha3_human EPHA3, P29320
Remark: another data set of the same source

effect of a mutation on the interaction | Variant
with no effect | R361H

Variants of: B3
Settings: with epha3_human EPHA3, P29320
Remark: another data set of the same source

effect of a mutation on the interaction | Variant
with no effect | G386D

Variants of: B3
Settings: with epha3_human EPHA3, P29320
Remark: another data set of the same source

effect of a mutation on the interaction | Variant
increasing interaction strength | G386D

Variants of: B3
Settings: with epha3_human EPHA3, P29320
Remark: another data set of the same source

effect of a mutation on the interaction | Variant
with no effect | D351H

Variants of: B4
Settings: with dach1_human DACH1, Q9UI36

effect of a mutation on the interaction | Variant
with no effect | G386D

Variants of: B4
Settings: with dach1_human DACH1, Q9UI36
Remark: another data set of the same source

effect of a mutation on the interaction | Variant
with no effect | D351H

Variants of: B4
Settings: with dach1_human DACH1, Q9UI36
Remark: another data set of the same source

effect of a mutation on the interaction | Variant
with no effect | R361C
